Assay results taken from IntAct's records for PubMed 25910212.
One block for each substance: values may come before it.

What was measured:
cap2_human CAP2 = cap2_human CAP2 (UniProt P40123)
cof2_human CFL2 = cof2_human CFL2 (UniProt Q9Y281)
tfcp2_human TFCP2 [1] = molecular target: tfcp2_human TFCP2 (UniProt Q12800)
goga2_human GOLGA2 [2] = molecular target: goga2_human GOLGA2 (UniProt Q08379)
hem1_human ALAS1 = hem1_human ALAS1 (UniProt P13196)
cep70_human CEP70 = molecular target: T1, cep70_human CEP70 (UniProt Q8NHQ1)
T1 sequence: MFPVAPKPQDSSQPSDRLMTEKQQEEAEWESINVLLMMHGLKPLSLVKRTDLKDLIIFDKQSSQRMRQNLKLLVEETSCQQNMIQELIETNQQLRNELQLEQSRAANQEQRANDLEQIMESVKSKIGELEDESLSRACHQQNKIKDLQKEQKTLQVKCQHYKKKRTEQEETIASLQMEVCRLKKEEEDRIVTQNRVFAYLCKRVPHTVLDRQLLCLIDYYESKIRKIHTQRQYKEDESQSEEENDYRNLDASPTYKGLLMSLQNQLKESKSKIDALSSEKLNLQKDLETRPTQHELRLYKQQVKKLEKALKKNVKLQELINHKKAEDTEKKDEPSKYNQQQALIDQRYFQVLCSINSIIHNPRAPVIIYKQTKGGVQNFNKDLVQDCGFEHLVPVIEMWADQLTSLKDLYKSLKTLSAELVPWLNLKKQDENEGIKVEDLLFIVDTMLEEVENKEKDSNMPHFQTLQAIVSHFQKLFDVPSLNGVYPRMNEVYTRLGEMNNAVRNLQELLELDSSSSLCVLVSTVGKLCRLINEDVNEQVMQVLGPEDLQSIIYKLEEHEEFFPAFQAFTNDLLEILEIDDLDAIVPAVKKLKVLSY

fsd2_human FSD2 = molecular target: T2, fsd2_human FSD2 (UniProt A1L4K1)
T2 sequence: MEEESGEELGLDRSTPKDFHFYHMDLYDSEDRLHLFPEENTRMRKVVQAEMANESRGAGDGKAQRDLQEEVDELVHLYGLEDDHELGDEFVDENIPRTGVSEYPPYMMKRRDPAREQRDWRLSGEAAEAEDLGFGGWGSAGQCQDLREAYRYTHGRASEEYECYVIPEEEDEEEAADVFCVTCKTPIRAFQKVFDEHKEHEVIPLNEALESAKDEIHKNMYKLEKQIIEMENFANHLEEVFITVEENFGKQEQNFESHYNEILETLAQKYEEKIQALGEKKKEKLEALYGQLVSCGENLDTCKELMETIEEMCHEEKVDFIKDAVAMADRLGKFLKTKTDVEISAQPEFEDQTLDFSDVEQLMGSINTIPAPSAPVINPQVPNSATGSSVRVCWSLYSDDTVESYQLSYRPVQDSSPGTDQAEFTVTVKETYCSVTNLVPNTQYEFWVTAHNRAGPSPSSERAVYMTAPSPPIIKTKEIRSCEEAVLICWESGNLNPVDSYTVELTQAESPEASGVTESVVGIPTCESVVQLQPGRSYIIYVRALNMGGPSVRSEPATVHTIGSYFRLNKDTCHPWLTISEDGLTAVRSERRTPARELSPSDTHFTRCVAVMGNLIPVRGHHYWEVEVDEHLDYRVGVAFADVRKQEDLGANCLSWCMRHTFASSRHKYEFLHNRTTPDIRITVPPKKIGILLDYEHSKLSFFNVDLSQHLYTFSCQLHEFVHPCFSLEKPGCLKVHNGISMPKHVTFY

kash5_human KASH5 = molecular target: T3, kash5_human KASH5 (UniProt Q8N6L0)
T3 sequence: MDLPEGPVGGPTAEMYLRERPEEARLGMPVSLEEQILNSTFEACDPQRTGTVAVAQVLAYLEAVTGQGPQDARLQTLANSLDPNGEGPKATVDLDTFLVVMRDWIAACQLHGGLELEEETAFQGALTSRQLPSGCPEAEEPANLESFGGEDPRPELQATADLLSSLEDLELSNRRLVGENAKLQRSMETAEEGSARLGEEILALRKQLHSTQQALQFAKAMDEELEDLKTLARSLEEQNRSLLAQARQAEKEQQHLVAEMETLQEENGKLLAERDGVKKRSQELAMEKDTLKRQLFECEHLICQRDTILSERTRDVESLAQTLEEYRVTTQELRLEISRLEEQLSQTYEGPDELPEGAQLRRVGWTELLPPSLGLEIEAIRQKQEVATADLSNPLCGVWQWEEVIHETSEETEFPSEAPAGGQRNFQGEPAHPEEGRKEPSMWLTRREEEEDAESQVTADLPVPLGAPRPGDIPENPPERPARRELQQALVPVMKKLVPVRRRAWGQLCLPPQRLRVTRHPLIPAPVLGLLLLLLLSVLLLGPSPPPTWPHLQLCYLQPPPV

tsg10_human TSGA10 = tsg10_human TSGA10 (UniProt Q9BZW7)
Chain of tsg10_human TSGA10 (Q9BZW7 whole entry): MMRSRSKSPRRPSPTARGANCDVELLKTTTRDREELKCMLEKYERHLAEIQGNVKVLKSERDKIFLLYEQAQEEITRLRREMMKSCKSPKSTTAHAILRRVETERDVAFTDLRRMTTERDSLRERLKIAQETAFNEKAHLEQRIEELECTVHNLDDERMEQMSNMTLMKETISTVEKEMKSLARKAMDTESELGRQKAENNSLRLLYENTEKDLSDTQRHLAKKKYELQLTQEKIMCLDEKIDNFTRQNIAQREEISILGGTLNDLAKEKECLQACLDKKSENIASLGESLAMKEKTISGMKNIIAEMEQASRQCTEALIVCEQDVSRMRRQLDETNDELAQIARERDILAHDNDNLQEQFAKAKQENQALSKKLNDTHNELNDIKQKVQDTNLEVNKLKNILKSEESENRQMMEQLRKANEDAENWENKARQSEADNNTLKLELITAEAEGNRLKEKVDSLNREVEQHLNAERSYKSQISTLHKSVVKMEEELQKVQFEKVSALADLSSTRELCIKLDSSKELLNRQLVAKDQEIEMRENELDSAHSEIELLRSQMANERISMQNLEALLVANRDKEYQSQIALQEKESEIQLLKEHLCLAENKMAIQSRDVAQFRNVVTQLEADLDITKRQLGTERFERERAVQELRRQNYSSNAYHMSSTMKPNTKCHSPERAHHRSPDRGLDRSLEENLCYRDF

tfcp2_human TFCP2 [3] = molecular target: tfcp2_human TFCP2 (UniProt Q12800); remark: listed apart in the source
smim3_human SMIM3 [4] = molecular target: T4, smim3_human SMIM3 (UniProt Q9BZL3)
T4 sequence: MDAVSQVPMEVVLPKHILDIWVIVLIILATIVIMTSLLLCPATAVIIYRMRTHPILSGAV

tmm79_human TMEM79 [5] = molecular target: T5, tmm79_human TMEM79 (UniProt Q9BSE2)
T5 sequence: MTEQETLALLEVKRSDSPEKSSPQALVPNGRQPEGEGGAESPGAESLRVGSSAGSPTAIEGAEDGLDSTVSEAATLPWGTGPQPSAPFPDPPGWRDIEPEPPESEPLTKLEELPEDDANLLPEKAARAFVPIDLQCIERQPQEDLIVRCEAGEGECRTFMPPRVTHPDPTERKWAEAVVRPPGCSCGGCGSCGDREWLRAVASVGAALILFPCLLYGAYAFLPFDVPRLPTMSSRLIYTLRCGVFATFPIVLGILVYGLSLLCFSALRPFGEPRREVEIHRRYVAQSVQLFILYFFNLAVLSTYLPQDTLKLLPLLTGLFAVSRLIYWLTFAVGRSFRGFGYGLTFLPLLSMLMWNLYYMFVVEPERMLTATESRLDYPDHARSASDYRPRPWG

SYNE4, Q8N205-2 = molecular target: T6, SYNE4, Q8N205-2
T6 sequence: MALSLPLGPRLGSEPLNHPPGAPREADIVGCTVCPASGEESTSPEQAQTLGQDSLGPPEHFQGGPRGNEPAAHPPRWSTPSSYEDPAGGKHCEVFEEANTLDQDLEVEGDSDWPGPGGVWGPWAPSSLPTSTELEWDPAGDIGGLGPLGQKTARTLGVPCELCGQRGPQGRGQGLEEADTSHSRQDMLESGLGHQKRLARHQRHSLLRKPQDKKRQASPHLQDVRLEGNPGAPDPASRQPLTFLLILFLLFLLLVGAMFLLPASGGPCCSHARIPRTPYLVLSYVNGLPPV

smim3_human SMIM3 [6] = molecular target: T4, smim3_human SMIM3; remark: listed apart in the source
tmm79_human TMEM79 [7] = molecular target: T5, tmm79_human TMEM79; remark: listed apart in the source
tfpt_human TFPT = tfpt_human TFPT (UniProt P0C1Z6)
Chain of tfpt_human TFPT (P0C1Z6 whole entry): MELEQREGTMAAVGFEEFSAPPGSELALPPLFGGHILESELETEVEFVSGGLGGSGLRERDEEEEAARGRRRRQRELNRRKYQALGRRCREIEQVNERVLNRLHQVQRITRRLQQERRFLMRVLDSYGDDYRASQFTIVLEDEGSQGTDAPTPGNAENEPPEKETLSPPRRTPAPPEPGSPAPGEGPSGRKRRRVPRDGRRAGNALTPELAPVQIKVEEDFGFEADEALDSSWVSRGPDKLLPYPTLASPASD

ifit3_human IFIT3 [8] = molecular target: ifit3_human IFIT3 (UniProt O14879)
Chain of ifit3_human IFIT3 (O14879 whole entry): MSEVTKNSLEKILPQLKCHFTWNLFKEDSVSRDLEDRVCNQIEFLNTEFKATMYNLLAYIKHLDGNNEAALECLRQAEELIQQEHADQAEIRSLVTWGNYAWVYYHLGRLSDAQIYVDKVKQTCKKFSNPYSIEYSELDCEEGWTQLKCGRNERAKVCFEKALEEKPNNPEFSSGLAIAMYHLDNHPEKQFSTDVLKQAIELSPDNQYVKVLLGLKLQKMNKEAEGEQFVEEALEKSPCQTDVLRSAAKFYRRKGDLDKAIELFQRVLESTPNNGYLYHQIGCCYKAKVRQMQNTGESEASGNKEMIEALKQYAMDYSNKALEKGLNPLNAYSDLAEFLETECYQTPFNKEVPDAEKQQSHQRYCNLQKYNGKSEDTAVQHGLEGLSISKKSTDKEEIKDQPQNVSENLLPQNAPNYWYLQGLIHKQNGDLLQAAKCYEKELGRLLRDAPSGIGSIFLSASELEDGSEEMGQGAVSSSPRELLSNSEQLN

kxdl1_human KXD1 = kxdl1_human KXD1 (UniProt Q9BQD3)
syce1_human SYCE1 = syce1_human SYCE1 (UniProt Q8N0S2)
Chain of syce1_human SYCE1 (Q8N0S2 whole entry): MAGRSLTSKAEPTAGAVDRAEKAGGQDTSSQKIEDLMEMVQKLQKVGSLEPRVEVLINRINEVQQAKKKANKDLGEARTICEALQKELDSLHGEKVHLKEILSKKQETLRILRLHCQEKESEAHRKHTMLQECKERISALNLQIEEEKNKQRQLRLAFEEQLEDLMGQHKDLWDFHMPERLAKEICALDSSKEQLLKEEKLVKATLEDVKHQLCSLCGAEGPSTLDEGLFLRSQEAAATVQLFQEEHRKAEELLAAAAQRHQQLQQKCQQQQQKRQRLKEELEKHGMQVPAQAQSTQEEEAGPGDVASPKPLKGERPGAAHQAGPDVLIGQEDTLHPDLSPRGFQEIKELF

ifit3_human IFIT3 [9] = molecular target: ifit3_human IFIT3 (UniProt O14879); remark: listed apart in the source
md1l1_human MAD1L1 = md1l1_human MAD1L1 (UniProt Q9Y6D9)
goga2_human GOLGA2 [10] = molecular target: goga2_human GOLGA2 (UniProt Q08379); remark: listed apart in the source
efhc2_human EFHC2 = molecular target: T7, efhc2_human EFHC2 (UniProt Q5JST6)
T7 sequence: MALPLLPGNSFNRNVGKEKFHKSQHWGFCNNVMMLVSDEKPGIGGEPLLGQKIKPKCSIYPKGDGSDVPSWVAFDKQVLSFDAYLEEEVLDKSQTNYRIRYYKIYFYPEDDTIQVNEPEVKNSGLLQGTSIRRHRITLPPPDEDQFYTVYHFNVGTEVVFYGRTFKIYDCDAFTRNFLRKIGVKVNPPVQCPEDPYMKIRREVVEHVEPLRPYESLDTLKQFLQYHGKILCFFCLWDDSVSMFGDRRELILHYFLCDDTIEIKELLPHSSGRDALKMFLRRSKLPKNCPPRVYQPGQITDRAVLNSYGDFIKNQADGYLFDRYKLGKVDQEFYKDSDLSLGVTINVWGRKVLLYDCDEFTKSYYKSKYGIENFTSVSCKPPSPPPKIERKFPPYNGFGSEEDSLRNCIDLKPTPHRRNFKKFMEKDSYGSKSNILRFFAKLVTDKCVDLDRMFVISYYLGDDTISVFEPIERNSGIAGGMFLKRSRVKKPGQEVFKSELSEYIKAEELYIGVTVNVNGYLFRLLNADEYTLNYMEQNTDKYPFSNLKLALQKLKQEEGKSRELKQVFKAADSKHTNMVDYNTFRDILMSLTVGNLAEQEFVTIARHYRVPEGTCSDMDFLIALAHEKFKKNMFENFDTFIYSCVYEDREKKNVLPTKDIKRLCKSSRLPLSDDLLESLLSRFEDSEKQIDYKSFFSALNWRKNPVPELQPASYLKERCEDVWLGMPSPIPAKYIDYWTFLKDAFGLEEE

Chain of tfcp2_human TFCP2 (Q12800 whole entry): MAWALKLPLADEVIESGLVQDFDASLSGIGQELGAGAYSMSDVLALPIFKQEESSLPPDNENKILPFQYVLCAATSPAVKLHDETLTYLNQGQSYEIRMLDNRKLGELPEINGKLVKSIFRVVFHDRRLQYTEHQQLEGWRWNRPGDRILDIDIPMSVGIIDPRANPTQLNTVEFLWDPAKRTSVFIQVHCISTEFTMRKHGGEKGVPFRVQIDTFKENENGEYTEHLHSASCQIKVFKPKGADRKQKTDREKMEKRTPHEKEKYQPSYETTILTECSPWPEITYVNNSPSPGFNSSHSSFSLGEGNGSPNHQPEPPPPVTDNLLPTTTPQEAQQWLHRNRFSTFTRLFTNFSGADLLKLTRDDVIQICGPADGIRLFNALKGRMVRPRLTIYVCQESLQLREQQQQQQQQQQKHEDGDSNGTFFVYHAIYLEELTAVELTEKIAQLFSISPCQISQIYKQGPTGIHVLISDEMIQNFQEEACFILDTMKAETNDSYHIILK
Chain of Tropomyosin alpha-1 chain (Homo sapiens), P09493-10 E40K (P09493 other isoform, or with tags, fused parts or gaps E40K): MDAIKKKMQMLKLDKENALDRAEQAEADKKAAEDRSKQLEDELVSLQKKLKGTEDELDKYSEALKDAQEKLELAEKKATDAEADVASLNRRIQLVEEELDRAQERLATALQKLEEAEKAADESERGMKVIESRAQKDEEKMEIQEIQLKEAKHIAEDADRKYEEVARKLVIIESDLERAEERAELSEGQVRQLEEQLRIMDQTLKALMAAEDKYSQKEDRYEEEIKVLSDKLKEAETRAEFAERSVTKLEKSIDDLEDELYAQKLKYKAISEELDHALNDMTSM
Chain of goga2_human GOLGA2 (Q08379 whole entry): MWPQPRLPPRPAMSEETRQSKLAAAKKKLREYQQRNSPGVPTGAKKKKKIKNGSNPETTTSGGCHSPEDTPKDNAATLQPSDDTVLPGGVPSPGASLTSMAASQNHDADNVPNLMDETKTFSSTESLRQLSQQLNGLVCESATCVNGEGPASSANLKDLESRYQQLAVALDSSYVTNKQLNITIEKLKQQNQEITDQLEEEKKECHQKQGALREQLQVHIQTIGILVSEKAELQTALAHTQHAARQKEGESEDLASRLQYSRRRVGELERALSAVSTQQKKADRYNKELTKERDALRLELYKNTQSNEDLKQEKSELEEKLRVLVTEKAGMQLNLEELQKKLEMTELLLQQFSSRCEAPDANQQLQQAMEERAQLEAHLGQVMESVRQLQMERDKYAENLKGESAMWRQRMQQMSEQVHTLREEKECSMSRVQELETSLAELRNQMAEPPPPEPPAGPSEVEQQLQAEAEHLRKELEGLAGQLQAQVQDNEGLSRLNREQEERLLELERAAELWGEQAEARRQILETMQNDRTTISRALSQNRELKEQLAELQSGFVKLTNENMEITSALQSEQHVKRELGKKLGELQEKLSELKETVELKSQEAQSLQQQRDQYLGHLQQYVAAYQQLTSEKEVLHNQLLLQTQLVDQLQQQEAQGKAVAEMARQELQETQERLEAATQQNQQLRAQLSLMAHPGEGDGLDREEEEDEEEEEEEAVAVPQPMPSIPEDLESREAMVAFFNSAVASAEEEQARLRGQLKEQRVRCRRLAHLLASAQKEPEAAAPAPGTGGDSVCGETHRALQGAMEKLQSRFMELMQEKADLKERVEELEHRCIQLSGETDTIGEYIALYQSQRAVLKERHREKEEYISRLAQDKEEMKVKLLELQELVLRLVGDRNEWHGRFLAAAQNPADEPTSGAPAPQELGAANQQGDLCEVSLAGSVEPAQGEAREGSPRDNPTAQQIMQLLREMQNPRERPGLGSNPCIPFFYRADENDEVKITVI
Chain of hem1_human ALAS1 (P13196 whole entry): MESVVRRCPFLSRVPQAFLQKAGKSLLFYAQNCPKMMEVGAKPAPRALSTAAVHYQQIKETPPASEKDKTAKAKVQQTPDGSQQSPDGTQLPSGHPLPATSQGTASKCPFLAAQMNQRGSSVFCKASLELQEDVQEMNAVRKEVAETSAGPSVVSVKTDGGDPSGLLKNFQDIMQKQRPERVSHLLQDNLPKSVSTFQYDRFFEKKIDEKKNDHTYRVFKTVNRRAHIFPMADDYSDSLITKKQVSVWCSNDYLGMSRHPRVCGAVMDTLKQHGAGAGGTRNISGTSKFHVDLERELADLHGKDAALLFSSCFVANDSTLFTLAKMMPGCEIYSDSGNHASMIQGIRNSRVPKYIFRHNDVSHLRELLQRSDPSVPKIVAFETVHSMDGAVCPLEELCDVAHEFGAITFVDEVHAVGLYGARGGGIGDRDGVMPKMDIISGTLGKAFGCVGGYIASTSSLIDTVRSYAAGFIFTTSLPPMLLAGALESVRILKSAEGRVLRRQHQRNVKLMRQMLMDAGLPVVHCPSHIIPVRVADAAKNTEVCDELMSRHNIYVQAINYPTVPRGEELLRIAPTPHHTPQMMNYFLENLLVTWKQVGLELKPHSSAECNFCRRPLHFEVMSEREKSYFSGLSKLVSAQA
Chain of MTUS2, Q5JR59-3 (Q5JR59 other isoform, or with tags, fused parts or gaps): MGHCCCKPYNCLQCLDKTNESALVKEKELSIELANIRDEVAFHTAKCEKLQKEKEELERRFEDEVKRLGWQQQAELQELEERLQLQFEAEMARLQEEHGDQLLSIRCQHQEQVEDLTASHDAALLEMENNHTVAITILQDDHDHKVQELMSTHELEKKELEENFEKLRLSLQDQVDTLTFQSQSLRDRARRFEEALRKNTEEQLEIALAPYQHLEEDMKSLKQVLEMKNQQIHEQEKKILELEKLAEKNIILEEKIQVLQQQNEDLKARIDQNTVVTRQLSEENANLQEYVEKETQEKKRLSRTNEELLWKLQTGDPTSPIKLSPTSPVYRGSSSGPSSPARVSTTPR
Chain of Carbonic anhydrase 1 (Homo sapiens), P00915 H68R (P00915 whole entry H68R): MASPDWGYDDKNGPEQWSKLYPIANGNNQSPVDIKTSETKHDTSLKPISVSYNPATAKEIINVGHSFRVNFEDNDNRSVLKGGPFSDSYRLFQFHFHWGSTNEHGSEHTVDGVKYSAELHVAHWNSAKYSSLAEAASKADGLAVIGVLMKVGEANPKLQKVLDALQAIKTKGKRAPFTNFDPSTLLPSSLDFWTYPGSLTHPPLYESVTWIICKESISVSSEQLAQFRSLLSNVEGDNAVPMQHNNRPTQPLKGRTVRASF

Substance: Carbonic anhydrase 1 (Homo sapiens), P00915 R247H
effect of a mutation on the interaction (tfcp2_human TFCP2 [1]): with no effect

Substance: Surfactant protein C (Homo sapiens) (from UniProt P11686) C189G
effect of a mutation on the interaction (smim3_human SMIM3 [4]): with no effect
effect of a mutation on the interaction (tmm79_human TMEM79 [5]): with no effect
effect of a mutation on the interaction (SYNE4, Q8N205-2): with no effect
effect of a mutation on the interaction (smim3_human SMIM3 [6]): causing an interaction
effect of a mutation on the interaction (tmm79_human TMEM79 [7]): disrupting interaction strength

Substance: Surfactant protein C (Homo sapiens) (from UniProt P11686) Y104H
effect of a mutation on the interaction (smim3_human SMIM3 [4]): with no effect
effect of a mutation on the interaction (tmm79_human TMEM79 [5]): with no effect
effect of a mutation on the interaction (SYNE4, Q8N205-2): with no effect
effect of a mutation on the interaction (smim3_human SMIM3 [6]): causing an interaction
effect of a mutation on the interaction (tmm79_human TMEM79 [7]): disrupting interaction strength

Substance: Tropomyosin alpha-1 chain (Homo sapiens), P09493-10 E40K
effect of a mutation on the interaction (tfpt_human TFPT): with no effect
effect of a mutation on the interaction (ifit3_human IFIT3 [8]): causing an interaction
effect of a mutation on the interaction (TNNT1, P13805-3): with no effect
effect of a mutation on the interaction (kxdl1_human KXD1): with no effect
effect of a mutation on the interaction (CAGE1, Q8TC20-4): with no effect
effect of a mutation on the interaction (syce1_human SYCE1): with no effect
effect of a mutation on the interaction (ifit3_human IFIT3 [9]): with no effect
effect of a mutation on the interaction (md1l1_human MAD1L1): with no effect
effect of a mutation on the interaction (goga2_human GOLGA2 [10]): disrupting interaction strength

Substance: Voltage-dependent L-type calcium channel subunit beta-4 (Homo sapiens) (from UniProt O00305) C104F
effect of a mutation on the interaction (efhc2_human EFHC2): with no effect

The next lines start with the values.

effect of a mutation on the interaction (cap2_human CAP2): disrupting interaction strength
effect of a mutation on the interaction (cof2_human CFL2): disrupting interaction strength
Substance: Actin, cytoplasmic 1 (Homo sapiens) (from UniProt P60709) E364K

effect of a mutation on the interaction (tfcp2_human TFCP2 [1]): with no effect
Substance: Carbonic anhydrase 1 (Homo sapiens), P00915 H68R

effect of a mutation on the interaction (goga2_human GOLGA2 [2]): disrupting interaction strength
effect of a mutation on the interaction (hem1_human ALAS1): disrupting interaction strength
effect of a mutation on the interaction (cep70_human CEP70): disrupting interaction strength
effect of a mutation on the interaction (fsd2_human FSD2): disrupting interaction strength
effect of a mutation on the interaction (MTUS2, Q5JR59-3): disrupting interaction strength
effect of a mutation on the interaction (kash5_human KASH5): disrupting interaction strength
effect of a mutation on the interaction (tsg10_human TSGA10): disrupting interaction strength
effect of a mutation on the interaction (tfcp2_human TFCP2 [3]): disrupting interaction strength
Substance: Parafibromin (Homo sapiens) (from UniProt Q6P1J9) L64P

effect of a mutation on the interaction (goga2_human GOLGA2 [2]): disrupting interaction strength
effect of a mutation on the interaction (hem1_human ALAS1): disrupting interaction strength
effect of a mutation on the interaction (cep70_human CEP70): disrupting interaction strength
effect of a mutation on the interaction (fsd2_human FSD2): disrupting interaction strength
effect of a mutation on the interaction (MTUS2, Q5JR59-3): disrupting interaction strength
effect of a mutation on the interaction (kash5_human KASH5): disrupting interaction strength
effect of a mutation on the interaction (tsg10_human TSGA10): disrupting interaction strength
effect of a mutation on the interaction (tfcp2_human TFCP2 [3]): disrupting interaction strength
Substance: Parafibromin (Homo sapiens) (from UniProt Q6P1J9) R91P

effect of a mutation on the interaction (efhc2_human EFHC2): with no effect
Substance: Voltage-dependent L-type calcium channel subunit beta-4 (Homo sapiens) (from UniProt O00305) R468Q
